From the supplement of paper PMC10567573

B1: KRT13 (parent)
chain: KTIEELRDKILTATIENNRVILEI
B2: KLHL14 (parent)
chain: YVIGGRNETGYLSSVECYNLETNE

Variants of: B1
Experiment: protein stability index of a GFP-peptide fusion (GPS, HEK-293T) (PSI 1-6); higher = more stable
Conditions: c terminus: a fixed tail appended
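Also: lentivirally expressed fusions sorted by FACS into six bins by GFP to DsRed ratio, PSI derived from sequencing read proportions per bin multiplied by bin number.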

Protein stability index, by site and new letter:
K9: L 2.37 | F 2.7 | E 2.7 | S 1.99 | N 2.29 | V 2.86 | C 3.32 | A 1.85 | D 2.24 | P 2.84 | G 2.21 | T 2.35
K1: M 1.88 | F 3.36 | A 3.63 | I 2.74 | R 1.6 | H 2.09 | E 2.38 | W 3.79 | S 3.17 | N 2.48 | D 2.31 | C 1.99 | P 1.24 | T 2.34 | Y 2.36
I10: K 1.55 | C 2.28 | R 2.31 | Y 3.2 | L 1.47 | F 3.07 | S 2.2 | E 2 | N 1.78 | T 1.43 | P 2.7 | V 1.75 | Q 1.54 | G 1.69 | A 2.17 | D 1.73 | M 2.3 | W 3.93 | H 2.12
L11: A 1.3 | K 1.59 | G 1.87 | P 1.95 | N 2.85 | E 1.92 | M 2.94 | C 2.33 | H 1.52 | D 1.57 | F 2.34
L6: Y 3.18 | K 2.32 | C 3.04 | R 2.56 | I 2.5 | P 1.48 | V 2.23 | N 1.31 | E 1.85 | M 1.98 | H 3.32 | D 1.92 | T 2.46 | A 1.94 | G 1.47 | Q 1.89
E4: F 3.99 | R 3.26 | V 2.4 | I 2.6 | A 1.85 | S 3.44 | M 1.7 | D 3.39 | H 3.82 | L 4.03 | T 3.39
E5: G 2.46 | Q 2.38 | A 2.6 | I 3.5 | M 4.08 | V 1.83 | R 2.13 | W 2.82 | K 2.95 | Y 4.43 | P 3.07
R7: M 2.07 | A 2.27 | L 3.71 | F 1.85 | D 2.25 | Q 2.85 | T 2.16 | K 1.51 | N 2.38 | C 3.68 | I 2.6 | P 1.15
I3: T 2.91 | S 2.41 | E 2.13 | P 1.39 | A 1.24 | G 3.54 | R 1.36 | Q 2.43 | D 1.67 | K 2.09 | F 3.37 | C 3.18 | N 2.43
T2: L 2.35 | M 2.73 | A 2.31 | Q 3.17 | D 2.88 | W 3.4 | K 2.6 | E 1.63 | N 2.12 | C 2.92 | H 1.86
D8: Q 1.67 | K 2.66 | A 2.49 | Y 2.14 | L 1.77 | F 2.81 | S 2.79 | I 1.64 | M 3.19 | P 2.46

Variants of: B2
Experiment: as above
Conditions: c terminus: a fixed tail appended

Protein stability index, by site and new letter:
E24: P 1.72 | R 2.17 | L 2.27 | G 1.69 | A 1.64 | V 1.96 | F 1.95 | Q 1.49 | T 1.63 | H 1.8 | S 2.07 | I 2.19 | N 1.99 | D 2.14 | K 1.75 | W 1.67 | C 1.96 | M 1.71 | Y 2.08
N23: R 1.92 | Q 3.14 | Y 1.75 | S 1.86 | V 2.17 | W 1.74 | T 2.15
